Common to all, as to experiment: flow cytometry, protein L-biotin then streptavidin-PE on CAR T cells
Assay [1] concerns the target CARs on the transduced T cell surface.
The target of assay [2] is tandem CD19/CD20 chimeric antigen receptor, Construct CAR 1920 (Leader-CD19 VL-Whitlow linker CD19 VH (GGGGS)-5 CD20 VH (GGGGS)-3 CD20 VL CD8 hinge+TM-4-1BB-CD3z).
The target of assay [3] is tandem CD20/CD19 chimeric antigen receptor, Construct CAR 2019 (Leader-CD20 VH (GGGGS)3-CD20 VL-(GGGGS)5-CD19 VL-Whitlow linker-CD19 VH CD8 hinge+TM-4-1BB-CD3z).
tandem CD20/CD19 chimeric antigen receptor, Construct CAR 2019 (Leader-CD20 VH (GGGGS)3-CD20 VL-(GGGGS)5-CD19 VL-Whitlow linker-CD19 VH CD8 hinge+TM-4-1BB-CD3z), sequence (chain, as listed by the source mutant): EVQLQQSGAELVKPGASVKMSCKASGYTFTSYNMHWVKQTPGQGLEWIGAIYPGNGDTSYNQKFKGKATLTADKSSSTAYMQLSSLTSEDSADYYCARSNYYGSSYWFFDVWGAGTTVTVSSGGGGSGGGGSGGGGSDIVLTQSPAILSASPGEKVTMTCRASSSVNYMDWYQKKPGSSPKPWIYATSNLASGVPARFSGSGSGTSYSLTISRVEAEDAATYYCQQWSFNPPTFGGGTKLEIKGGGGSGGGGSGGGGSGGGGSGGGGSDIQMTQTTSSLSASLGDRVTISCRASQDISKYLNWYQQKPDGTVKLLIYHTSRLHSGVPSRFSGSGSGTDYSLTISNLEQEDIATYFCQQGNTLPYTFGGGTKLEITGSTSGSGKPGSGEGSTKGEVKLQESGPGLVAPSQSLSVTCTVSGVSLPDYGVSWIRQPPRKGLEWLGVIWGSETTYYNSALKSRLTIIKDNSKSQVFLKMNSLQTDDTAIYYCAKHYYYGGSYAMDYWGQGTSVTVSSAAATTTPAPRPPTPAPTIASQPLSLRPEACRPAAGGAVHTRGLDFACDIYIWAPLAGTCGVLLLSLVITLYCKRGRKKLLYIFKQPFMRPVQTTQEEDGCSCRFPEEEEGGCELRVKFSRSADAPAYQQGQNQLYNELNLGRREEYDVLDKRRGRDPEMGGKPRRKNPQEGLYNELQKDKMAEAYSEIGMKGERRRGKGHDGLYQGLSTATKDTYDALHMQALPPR

tandem CD19/CD20 chimeric antigen receptor, Construct CAR 1920 (Leader-CD19 VL-Whitlow linker CD19 VH (GGGGS)-5 CD20 VH (GGGGS)-3 CD20 VL CD8 hinge+TM-4-1BB-CD3z), sequence (chain, as listed by the source mutant): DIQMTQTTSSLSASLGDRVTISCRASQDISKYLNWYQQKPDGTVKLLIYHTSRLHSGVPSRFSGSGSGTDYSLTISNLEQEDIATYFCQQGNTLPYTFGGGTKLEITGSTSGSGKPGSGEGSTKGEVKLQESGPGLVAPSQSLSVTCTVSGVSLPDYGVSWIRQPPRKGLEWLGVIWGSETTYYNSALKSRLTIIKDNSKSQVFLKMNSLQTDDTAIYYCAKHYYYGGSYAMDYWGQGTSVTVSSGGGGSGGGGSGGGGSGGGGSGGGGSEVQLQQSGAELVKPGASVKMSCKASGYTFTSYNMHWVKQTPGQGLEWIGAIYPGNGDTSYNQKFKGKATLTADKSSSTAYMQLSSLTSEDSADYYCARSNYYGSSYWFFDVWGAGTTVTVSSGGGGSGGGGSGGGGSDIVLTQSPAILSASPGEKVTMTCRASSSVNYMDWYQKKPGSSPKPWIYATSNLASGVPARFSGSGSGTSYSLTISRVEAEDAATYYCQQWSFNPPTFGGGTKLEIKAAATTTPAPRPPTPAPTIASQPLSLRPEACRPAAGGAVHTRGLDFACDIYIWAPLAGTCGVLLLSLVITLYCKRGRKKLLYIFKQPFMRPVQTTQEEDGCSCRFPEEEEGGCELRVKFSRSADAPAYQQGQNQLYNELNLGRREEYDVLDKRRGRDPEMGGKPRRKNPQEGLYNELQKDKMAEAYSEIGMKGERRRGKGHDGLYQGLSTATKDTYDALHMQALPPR

In assay [1], protein L-biotin conjugate (GenScript) came in with a percent of transduced T cells stained (CAR surface expression) of 61 to 93%. Besides, the percent of transduced T cells stained in assay [2] is 85%; in assay [3], 89%.

For the origin of these results see patent publication US20240034802A1.
